Results reported in PMC8994517 (Nature, 2021).

Target: Human Hsp90α (human, UniProt P07900 1-732)
Assay: cryo-EM structure

B1: Human p23 (natural protein, UniProt Q15185 1-160, looked up)
chain: MQPASAKWYDRRDYVFIEFCVEDSKDVNVNFEKSKLTFSCLGGSDNFKHLNEIDLFHCIDPNDSKHKRTDRSILCCLRKGESGQSWPRLTKERAKLNWLSVDFNNWKDWEDDSDEDMSNFDRFSEMMNNMGGDEDVDLPEVDGADDDSQDSDDEKMPDLE
stoichiometry N: 1 p23 per Hsp90 dimer
